Experimental data reported in FireProtDB (doi:10.1021/bi060038+).

B1: Phosphocarrier protein HPr, P08877 (parent)
chain: MAQKTFKVTADSGIHARPATVLVQTASKYDADVNLEYNGKTVNLKSIMGVMSLGIAKGAEITISASGADENDALNALEETMKSEGLGE

Variants of: B1
Conditions: Bacillus subtilis (strain 168), pH 7, CD, sodium phosphate 10 mM, reversible: Yes, structure 2HPR, whole UniProt chain shown; for ddG of mutation (higher = less stable) / denaturant m value / unfolding free energy: 25 °C; for Tm / change of melting temperature, mutant - wild type (higher = more stable) / unfolding enthalpy (van 't Hoff): Thermal

| Variant | ddG of mutation (higher = less stable) (GdnHCl) [kcal/mol] | denaturant m value (GdnHCl) [kcal/mol/M] | unfolding free energy (GdnHCl) [kcal/mol] | Tm [°C] | change of melting temperature, mutant - wild type (higher = more stable) [°C] | unfolding enthalpy (van 't Hoff) [kcal/mol] | ddG of mutation (higher = less stable) (Urea) [kcal/mol] | denaturant m value (Urea) [kcal/mol/M] | unfolding free energy (Urea) [kcal/mol] |
| --- | --- | --- | --- | --- | --- | --- | --- | --- | --- |
| MRQKTFKVTADSGIHARPATVLVQTASKYDADVNLEYNGKTVNLKSIMGVMSLGIAKGAEITISASGADEEDALNALEETMKSEGLGE [A2R N71E] | -1.5 | 3.39 | 4.9 | 83.1 | 10.1 | 91 |  |  |  |
| MKQKTFKVTADSGIHARPATVLVQTASKYDADVNLEYNGKTVNLKSIMGVMSLGIAKGAEITISASGADEEDALNALEETMKSEGLGE [A2K N71E] | -1.1 | 3.37 | 4.5 | 79.6 | 6.6 | 85 | -1.1 | 0.95 | 6.1 |
